Experimental data taken from US11008365B2 (NATIONAL INSTITUTE OF ADVANCED INDUSTRIAL SCIENCE AND …, priority 2016, dated 2021).
“Also recorded” adds a separate entry of the source.

How the values were obtained:
[1] = target: T1, CH1-CL domain forming a non-native three-dimensional structure (Homo sapiens, UniProt P01834+P01857); assay: SPR of synthetic peptides on immobilized acid-treated CH1-CL domain; format: binding; conditions: for Non-native CH1-CL domain (whether affinity was present or not): SPR Biacore T100, peptides 4-1 μM (FIG. 5), 50-1.6 μM (FIG. 6), 64-2 μM (FIG. 7); for affinity / binding response compared to AF.ab9: SPR, non-native CH1-CL domain immobilized, FIGS. 6 and 7
T1 construct: made in house; host or cells: Escherichia coli BL21(DE3)
Description: Here, the AF.ab9 body is a 16-residue polypeptide consisting of the 8-residue linker region and the 8-residue microprotein chignolin, and the AF.ab9 arm is a 10-residue polypeptide consisting of a region selected from the random amino acid sequences. The preparation of the polypeptides was entrusted to GL Biochem (Shanghai). […] The measurement conditions were in accordance with those in the paragraph 3).
The CH1-CL domain forming a non-native three-dimensional structure prepared by the same method as in the paragraph 3) was immobilized on a sensor chip CM5 (GE Healthcare) by amine coupling, and the binding thereof to AF.ab31, AF.ab9, and alanine substitution products was measured with Biacore T100 (FIGS. 6 and 7, Table 3).

human monoclonal IgG = assay: SPR of IgG (native or acid-treated) on immobilized AF.ab9; format: binding
Description: (§1) Preparation of the synthesized polypeptide was entrusted to GL Biochem (Shanghai). AF.ab9 was dissolved in a boric acid buffer solution (10 mM Borate-Na, 1 M NaCl, pH 8.5) and was immobilized on a sensor chip CM5 (GE Healthcare) by amine coupling.
(§2) Subsequently, human monoclonal IgG, Fab region, and Fc region having a native three-dimensional structure and a non-native three-dimensional structure were prepared. The Fab region and Fc region were prepared by subjecting human monoclonal IgG to papain digestion with Pierce (registered trademark) Fab Preparation Kit (Thermo Fisher Scientific Inc.) and then to purification by affinity chromatography using MabSelect SuRe (GE Healthcare), anion exchange chromatography using HiTrap DEAE (GE Healthcare), and gel filtration chromatography using Superdex 200 (GE Healthcare). The IgG, Fab region, and Fc region were each diluted to 5 μM and dialyzed against an acid buffer solution (50 mM NaH2PO4, 100 mM NaCl, pH 2.0) for 12 hours for accelerating acid denaturation and dialyzed against an HBS-T buffer solution for neutralization.
Subsequently, an example of evaluating the affinity of AF.ab9 for IgG treated with buffer solutions having different degrees of acidity will be described. IgG was dissolved in an HBS buffer solution (10 mM HEPES, 150 mM NaCl, pH 7.4) at a concentration of 5 μM. The acidity of a sodium phosphate buffer solution (50 mM NaH2PO4, 100 mM NaCl) as an acid buffer solution was adjusted to three degrees of pH 2.0, pH 3.0, and pH 4.0. An antibody was dialyzed against each of the buffer solutions for 12 hours and was then dialyzed against an HBS-T buffer solution for neutralization. The affinity of each of the resulting acid-treated IgG for AF.ab9 was measured by SPR (FIG. 4, Table 2). The SPR test was conducted in accordance with the conditions described above in this paragraph. […] Regarding the acid denaturation of the CH1-CL domain, it has been reported as the results of analysis by spectroscopic methods such as CD spectrum and fluorescence spectrum that a clear change in the three-dimensional structure of the CH1-CL domain occurs between pH 4.0 and pH 3.0 (Non Patent Literature 32).

Fc region = assay: SPR of Fc region (native or acid-treated) on immobilized AF.ab9; format: binding, human
Description: as §1, §2

Fab region = assay: SPR of Fab region (native or acid-treated) on immobilized AF.ab9; format: binding, human
Description: as §1, §2

Sequence	Non-native CH1-CL domain (whether affinity was present or not) [1]	affinity / binding response compared to AF.ab9 [1]	other results
PNSGGGGSYDPETGTWPQWITLTITY (Synthetic IgG binding peptide) [AF.ab31]	Binding	substantially equivalent	
PNSGGGGSYDPETGTWPQEIRLILNW (Synthetic IgG binding peptide) [AF.ab9]	showed affinity; also recorded: Binding		affinity for AF.ab9: pH 2.0-treated IgG (human monoclonal IgG; IgG treated with acid buffer pH 2.0 for 12 hours, neutralized, 2-0.125 μM): strong binding response; also recorded: clear binding responses; affinity for AF.ab9: pH 3.0-treated IgG (human monoclonal IgG; IgG treated with acid buffer pH 3.0, neutralized, 2-0.125 μM): clear binding responses; affinity for AF.ab9: pH 4.0-treated IgG (human monoclonal IgG; IgG treated with acid buffer pH 4.0, neutralized, 2-0.125 μM): did not show a significant binding response; also recorded: No-binding; affinity for AF.ab9: Native IgG (human monoclonal IgG; acid-untreated IgG 2-0.125 μM, AF.ab9 immobilized on CM5): did not show a significant binding response; also recorded: No-binding; affinity for AF.ab9: pH 2.0-treated Fc (Fc region; Fc region treated with acid buffer pH 2.0, neutralized, 2-0.125 μM): No-binding; affinity for AF.ab9: Native Fc (Fc region; acid-untreated Fc region 2-0.125 μM): did not show a binding response; also recorded: No-binding; binding response to the acid-treated Fc region compared with that on the non-native structure of the Fab region (Fc region; pH 2.0-treated Fc versus pH 2.0-treated Fab, SPR): 1/100; affinity for AF.ab9: pH 2.0-treated Fab (Fab region; Fab region treated with acid buffer pH 2.0, neutralized, 2-0.125 μM): strong binding response; affinity for AF.ab9: Native Fab (Fab region; acid-untreated Fab region 2-0.125 μM): did not show a significant binding response; also recorded: No-binding
PNSGGGGSYDPETGTWAQEIRLILNW [AF.ab9 P17A]	Binding	the binding response decreased	
PNSGGGGSYDPETGTWPQEIRLIANW [AF.ab9 L24A]	Binding	the binding response decreased	
PNSGGGGSYDPETGTWPAEIRLILNW [AF.ab9 Q18A]	Binding		
PQEIRLILNW (Synthetic IgG binding peptide) [AF.ab9 arm]	showed affinity; also recorded: Binding		
